Measured values reported in patent US20020119473, “Nucleic acid ligands to the prostate specific membrane antigen” (published 2002).

What was measured:
Settings in all cases: tags: S-tag fusion released by enterokinase; baculovirus Sf-9 secreted
[1] = molecular target: T1, xPSM (extracellular portion of PSMA) (Homo sapiens (LNCaP cDNA), UniProt Q04609 Q04609:44-750); test: inhibition; NAALADase assay, 8 nM substrate, 37 C
Experimental: (§1) NAAG hydrolysis was performed essentially as described in Robinson et al. (1987) J Biol Chem. 262:14498-506. LNCaP cell extracts were prepared by sonication in the presence of 50 mM Tris, pH 7.4, 0.5% Triton-X-100. Cell lysate or purified xPSM was incubated in the presence of the radiolabeled substrate N-acetyl-L-aspartyl-L-[3,4-³H]glutamate (NEN Life Science Products, Boston, Mass.) at 37° C. for 10-15 minutes. The reaction was stopped with an equal volume of ice-cold 100 mM sodium phosphate, 2 mM EDTA. Products were separated from intact substrate using anion exchange chromatography and quantitated by scintillation counting. […] In all cases less than 20% of substrate was cleaved.

[2] = molecular target: T1, xPSM (extracellular portion of PSMA); test: inhibition; noncompetitive NAALADase inhibition, 37 C
Experimental: as §1

[3] = molecular target: T1, xPSM (extracellular portion of PSMA); test: inhibition; competitive NAALADase inhibition, 37 C
Experimental: as §1

[4] = molecular target: T1, xPSM (extracellular portion of PSMA); test: inhibition; competitive NAALADase inhibition, +/-7.8 nM, 37 C
Experimental: as §1

T1 sequence (Q04609 44-750, one chain of several): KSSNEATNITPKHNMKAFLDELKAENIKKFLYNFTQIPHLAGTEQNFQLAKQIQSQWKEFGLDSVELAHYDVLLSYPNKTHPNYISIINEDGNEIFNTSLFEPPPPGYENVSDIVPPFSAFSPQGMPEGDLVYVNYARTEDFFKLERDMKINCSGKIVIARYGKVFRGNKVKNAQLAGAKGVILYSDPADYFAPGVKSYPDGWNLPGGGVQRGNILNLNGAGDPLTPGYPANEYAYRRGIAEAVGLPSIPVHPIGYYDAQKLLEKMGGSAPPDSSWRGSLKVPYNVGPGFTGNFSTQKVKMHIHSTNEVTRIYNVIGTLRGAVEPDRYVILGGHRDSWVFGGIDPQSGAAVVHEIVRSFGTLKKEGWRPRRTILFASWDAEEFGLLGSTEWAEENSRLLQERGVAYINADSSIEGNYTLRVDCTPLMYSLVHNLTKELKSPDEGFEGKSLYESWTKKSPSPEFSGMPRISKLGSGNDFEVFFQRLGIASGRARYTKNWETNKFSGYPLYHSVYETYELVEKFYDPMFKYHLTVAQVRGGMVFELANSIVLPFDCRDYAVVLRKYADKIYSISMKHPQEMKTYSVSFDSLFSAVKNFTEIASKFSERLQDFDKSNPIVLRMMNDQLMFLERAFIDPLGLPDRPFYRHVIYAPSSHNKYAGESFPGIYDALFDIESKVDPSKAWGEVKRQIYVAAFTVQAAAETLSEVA

Binder | IC50 [1] [nM] | also measured
GGGAGGACGAUGCGGAUCAGCCAUGUUUACGUCACUCCUUGUCAAU (ssRNA, 2'-F all pyrimidines; purines 2'-OH) [xPSM1.A10-5] | > 700 | 
xPSM-A9 (ssRNA, 2'-F all pyrimidines; purines 2'-OH) RNA: GGGAGGACGAUGCGGACCGAAAAAGACCUGACUUCUAUACUAAGUCUACGUUCCCAGACGACUCGCCCGA | 5 | Ki [2]: 1.1 nM
xPSM-A10 (62-A10) (ssRNA, 2'-F all pyrimidines; purines 2'-OH) RNA: GGGAGGACGAUGCGGAUCAGCCAUGUUUACGUCACUCCUUGUCAAUCCUCAUCGGCAGACGACUCGCCCGA | 80 | Ki [3]: 11.9 nM
xPSM1.A9-1 (ssRNA, 2'-F all pyrimidines; purines 2'-OH) RNA: GGGAGGACGAUGCGGACCGAAAAAGACCUGACUUCUAUACUAAGUCUACGUUCCCAGACGACUCG | 8 | 
GGGAGGACGAUGCGGACCGAAAAAGACCUGACUUCUAUAC (ssRNA, 2'-F all pyrimidines; purines 2'-OH) [xPSM1.A9-6] | > 300 | 
xPSM1.A9-2 (ssRNA, 2'-F all pyrimidines; purines 2'-OH) RNA: GGGAGGACGAUGCGGACCGAAAAAGACCUGACUUCUAUACUAAGUCUACGUUCCCAGACG | 300 | 
xPSM1.A9-3 (ssRNA, 2'-F all pyrimidines; purines 2'-OH) RNA: GGGAGGACGAUGCGGACCGAAAAAGACCUGACUUCUAUACUAAGUCUACGUUCCC | > 300 | 
GGGAGGACGAUGCGGAUCAGCCAUGUUUACGUCACUCCUUG (ssRNA, 2'-F all pyrimidines; purines 2'-OH) [xPSM1.A10-6] | > 700 | 
xPSM1.A10-4 (ssRNA, 2'-F all pyrimidines; purines 2'-OH) RNA: GGGAGGACGAUGCGGAUCAGCCAUGUUUACGUCACUCCUUGUCAAUCCUCA | > 700 | 
xPSM1.A10-3 (ssRNA, 2'-F all pyrimidines; purines 2'-OH) RNA: GGGAGGACGAUGCGGAUCAGCCAUGUUUACGUCACUCCUUGUCAAUCCUCAUCGGC | 50 | Ki [4]: 20.5 nM
xPSM1.A10-1 (ssRNA, 2'-F all pyrimidines; purines 2'-OH) RNA: GGGAGGACGAUGCGGAUCAGCCAUGUUUACGUCACUCCUUGUCAAUCCUCAUCGGCAGACGACUCG | 40 | 
GGGAGGACGAUGCGGACCGAAAAAGACCUGACUUCUAUACUAAGU (ssRNA, 2'-F all pyrimidines; purines 2'-OH) [xPSM1.A9-5] | > 300 | 
GGGAGGACGAUGCGGACCGAAAAAGACCUGACUUCUAUACUAAGUCUACG (ssRNA, 2'-F all pyrimidines; purines 2'-OH) [xPSM1.A9-4] | > 300 | 
